Reference: patent US8980955, “Small molecule inhibitors of replication protein A that also act synergistically with cisplatin” (Indiana University Research and Technology)

Tests used:
RPA p70 DBD-A/B [1] = molecular target: T1, RPA p70 DBD-A/B (Homo sapiens, UniProt P27694 P27694:181-422); experiment: FP; 20 nM DNA; 10 mM HEPES pH 7.2, 100 mM NaCl; inhibited irreversibly by CheSS19; conditions: tags: His (pET15b, nickel-NTA purified); label: fluorescein (F)
T1 chain: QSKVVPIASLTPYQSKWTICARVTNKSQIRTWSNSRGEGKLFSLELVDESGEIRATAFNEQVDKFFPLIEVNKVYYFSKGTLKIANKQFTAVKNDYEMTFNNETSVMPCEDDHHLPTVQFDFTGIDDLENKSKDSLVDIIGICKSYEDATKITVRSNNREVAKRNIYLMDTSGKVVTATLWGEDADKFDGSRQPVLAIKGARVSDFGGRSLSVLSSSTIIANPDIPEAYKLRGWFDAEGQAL
Method: In an experiment reported herein, DBD-A/B was incubated with CheSS 19 and then the reaction mix dialyzed overnight to remove dissociable inhibitor.
Referring now to FIG. 3D. Bar graph showing results of fluorescence polarization analysis of CheSS19 inactivated RPA DBD-A/B. Referring now to FIG. 3D, RPA DBD-A/B was pre-incubated with vehicle (1% DMSO) or CheSS19 (1pmol in 1% DMSO) for 30 minutes at 37° C. Following incubation, the reaction mix was dialyzed versus H1 buffer overnight at 4° C. The protein was recovered and DNA binding activity measured by FP analysis of binding to an F-dT12 substrate was performed as described in "Methods". Bar 1, DNA control, Bar 2, control vehicle treated DBD-A/B, Bar 3, Chess19 treated DBD-A/B. The data represent the mean and range of two independent experiments.
Fluorescence polarization experiments were preformed as previously described (21). SMIs were diluted in H1 buffer (10 mM HEPES, pH 7.2, 1 mM DTT, 0.01% NP-40 and 100 mM NaCl) and the final DMSO concentration was kept below 1%.

RPA p70 DBD-A/B [2] = molecular target: T1, RPA p70 DBD-A/B; experiment: EMSA; not inhibited by MCI13E or MCI13F; conditions: tags: His (pET15b, nickel-NTA purified); label: 5'-32P
[3] = molecular target: T2, RPA heterotrimer (p70/p34/p14, full-length) (Homo sapiens, UniProt P27694;P15927;P35244 P27694:1-616,P15927:1-270,P35244:1-121); experiment: EMSA; inhibited irreversibly by MCI13E; conditions: tags: untagged; label: 5'-32P
T2 sequence (P27694 whole entry, chain 1 of 3): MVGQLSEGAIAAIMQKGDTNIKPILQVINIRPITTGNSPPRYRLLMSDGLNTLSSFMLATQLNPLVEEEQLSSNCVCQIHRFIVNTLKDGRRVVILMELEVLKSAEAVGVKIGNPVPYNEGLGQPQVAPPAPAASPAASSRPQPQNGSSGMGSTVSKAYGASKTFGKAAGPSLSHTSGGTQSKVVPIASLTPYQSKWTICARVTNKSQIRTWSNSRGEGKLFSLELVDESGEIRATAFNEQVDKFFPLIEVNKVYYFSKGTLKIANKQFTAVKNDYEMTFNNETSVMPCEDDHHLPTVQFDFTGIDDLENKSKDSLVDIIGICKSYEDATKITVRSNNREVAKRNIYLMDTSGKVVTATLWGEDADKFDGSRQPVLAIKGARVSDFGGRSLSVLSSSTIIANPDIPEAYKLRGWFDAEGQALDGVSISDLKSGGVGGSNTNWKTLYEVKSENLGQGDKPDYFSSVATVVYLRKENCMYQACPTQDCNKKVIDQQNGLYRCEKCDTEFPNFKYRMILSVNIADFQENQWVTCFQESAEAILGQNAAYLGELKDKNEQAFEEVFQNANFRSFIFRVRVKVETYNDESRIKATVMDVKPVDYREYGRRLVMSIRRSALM
T2 sequence (P15927 whole entry, chain 2 of 3): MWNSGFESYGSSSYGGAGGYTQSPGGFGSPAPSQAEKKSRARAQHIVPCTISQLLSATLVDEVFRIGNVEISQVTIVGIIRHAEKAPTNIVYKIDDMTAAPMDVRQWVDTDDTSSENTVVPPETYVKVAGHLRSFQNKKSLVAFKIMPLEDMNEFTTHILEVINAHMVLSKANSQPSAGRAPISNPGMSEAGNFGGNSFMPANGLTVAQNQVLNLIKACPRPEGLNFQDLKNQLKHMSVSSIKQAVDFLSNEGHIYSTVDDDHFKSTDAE
T2 sequence (P35244 whole entry, chain 3 of 3): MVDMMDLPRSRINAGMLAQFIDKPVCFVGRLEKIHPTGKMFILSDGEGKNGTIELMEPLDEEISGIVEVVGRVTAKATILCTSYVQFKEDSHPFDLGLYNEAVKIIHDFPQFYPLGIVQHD
Method: Considering the differential inhibition observed between the anhydride and halo esters with respect to specificity, experiments were carried out to determine if the isoborneol halo-esters inhibited full-length RPA in an irreversible fashion. Full-length RPA was mixed with MCI13E or vehicle control and the reaction mixtures were then dialyzed overnight. Referring now to FIG. 5. Gel showing irreversible inactivation of full-length heterotrimeric RPA by MCI13E. Incubation of RPA with MCI13E, dialysis and recovery was performed as described for FIG. 3. DNA binding activity of the resulting protein was assessed by EMSA using a 5'-[^32P]-ss 34-base DNA as described in "Methods". Lanes 1-4 pre-dialysis, lanes 5 and 6 post dialysis. […] In fact, the degree of inhibition was similar to that observed for the MCI13E treated RPA before dialysis (FIG. 5 lanes 3 and 4). […] This activity is consistent with MCI13E and F and their reaction with RPA serving as a pharmacodynamic marker of RPA inhibition or as a biomarker for RPA expression and activity.

[4] = molecular target: T2, RPA heterotrimer (p70/p34/p14, …); experiment: EMSA; 12.5 nM DNA; binding inhibited by MCI13E, MCI13F and CheSS19; conditions: tags: untagged; label: 5'-32P
EcSSB = EcSSB (Escherichia coli, UniProt P0AGE0 P0AGE0:2-178); experiment: EMSA; 25 nM DNA, 3.3 nM SSB tetramer, 20 mM HEPES pH 7.5, 100 mM NaCl; unaffected by CheSS19, MCI13E, MCI13F; conditions: tags: Enzymatics, Beverly MA; chain copies: 4 stated; label: 5'-32P
Sequence of EcSSB (P0AGE0 2-178, one chain of several): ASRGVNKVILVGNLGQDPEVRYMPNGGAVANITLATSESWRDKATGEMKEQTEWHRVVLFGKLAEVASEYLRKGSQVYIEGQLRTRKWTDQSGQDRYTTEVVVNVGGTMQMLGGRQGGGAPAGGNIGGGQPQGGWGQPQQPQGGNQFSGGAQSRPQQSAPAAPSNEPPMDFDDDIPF
Method: Referring now to FIG. 6B. CheSS19 titration in EcSSB DNA-binding reactions. CheSS19 (0, 25, 50, 100, and 200 μM) was pre-incubated with EcSSB and binding reactions were carried out. Referring now to FIG. 6C. Titration of MCI13E and MCI13F in EcSSB DNA-binding reactions. Concentrations of MCI13E/F used were: 0, 25, 50, 100, and 200 μM. In all panels, the 'Free' ssDNA is indicated with an arrow and the 'Bound' ssDNA is indicated by brackets. All reactions were performed in the same order and manner as the RPA binding reactions. EcSSB binding was unaffected by CheSS19 and the MCI13E and MCI13F compounds (FIGS. 6A and B).
EMSAs were performed similarly to those for the RPA constructs, with the following exceptions. Reactions contained 25 nM of 5'-[^32P]-labeled 3Pc3 ssDNA and 3.3 nM (assuming homotetramer formation) SSB protein (Enzymatics, Beverly, Mass.). Reactions (20 μL) were carried out in 20 mM HEPES, pH 7.5, 1 mM DTT, 0.01% NP-40, 100 mM NaCl, and resolved by 6% native polyacrylamide gel electrophoresis at 25 mA for 2 hours. Gels were dried and quantified via phosphorimager analysis and ImageQuant software (Molecular Dynamics).

Binder: TTTTTTTTTTTT (ssDNA) [F-dT12]
- binding result (RPA p70 DBD-A/B [1]): binds

Binder: TTTTTTTTTTTT (ssDNA) [dT12]
- binding result (RPA p70 DBD-A/B [2]): binds

Binder: CTAGAAAGGGGGAAGAAAGGGAAGAGGCCAGAGA (ssDNA) [34-mer]
- binding result [3]: binds

Binder: GGAGACCGAAGAGGAAAAGAAGGAGAGAGG (ssDNA) [3Pc3 30-mer]
- binding result [4]: binds
- binding result (EcSSB): binds
